Numbering of substitutions follows the chain as printed.
Tests used:
Details in all cases: both partners purified
[1] = molecular target: T1, recombinant CHMP7 S3E/S441E (human, UniProt Q8WUX9 1-453, S3E | S441E); assay: co-sedimentation; 5 μM CHMP7 or mutant with 10 μM HA-LEM2^CT (one legend says equimolar) in TKD buffer (50 mM Tris HCl pH 8, 150 mM KCl, 1 mM DTT), room temperature for 2 hr; 22,000 x g for 40 min at 4°C; blots with anti-CHMP7 and anti-HA
T1 construct: CHMP7, human, full length with phosphomimetic residues at Ser3 and Ser441; also called CHMP7 S3E/D441E (as printed once in the methods); source: E. coli BL21(DE3), purified (Ni-NTA, TEV cleavage, Superdex 200); not shown: 2xHis6, N-terminal, cleaved; NusA, N-terminal, cleaved
T1 sequence (looked up): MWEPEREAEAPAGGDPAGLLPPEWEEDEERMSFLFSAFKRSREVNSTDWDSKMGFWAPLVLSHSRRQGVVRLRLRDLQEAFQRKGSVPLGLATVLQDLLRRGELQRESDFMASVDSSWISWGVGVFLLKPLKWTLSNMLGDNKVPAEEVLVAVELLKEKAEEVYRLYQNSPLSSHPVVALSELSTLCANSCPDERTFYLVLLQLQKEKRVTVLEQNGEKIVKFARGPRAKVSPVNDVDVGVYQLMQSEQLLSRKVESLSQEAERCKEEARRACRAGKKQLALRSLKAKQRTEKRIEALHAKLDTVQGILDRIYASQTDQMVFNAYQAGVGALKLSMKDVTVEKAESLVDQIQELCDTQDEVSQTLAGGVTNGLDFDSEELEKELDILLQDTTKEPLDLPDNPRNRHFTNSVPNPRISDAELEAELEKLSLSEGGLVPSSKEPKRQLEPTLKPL

[2] = molecular target: T2, recombinant CHMP7 S3D/S441D (human, UniProt Q8WUX9 1-453, S3D | S441D); assay: as above
T2 construct: CHMP7, human, full length with phosphomimetic residues at Ser3 and Ser441; source: E. coli BL21(DE3), purified (Ni-NTA, TEV cleavage, Superdex 200); not shown: 2xHis6, N-terminal, cleaved; NusA, N-terminal, cleaved
T2 sequence (looked up): T1 sequence (looked up) with E3D, E441D

[3] = molecular target: T3, recombinant CHMP7 (full length, wild type) (human, UniProt Q8WUX9 1-453); assay: co-IP; purified CHMP7 or S3D/S441D with HA-LEM2^CT at 1:2 in TKD buffer, overnight at 4°C; CHMP7 captured on anti-CHMP7 Dynabeads; washes with 0.05% Tween-20; blots with anti-CHMP7 and anti-HA
T3 construct: CHMP7, human, full-length open reading frame; the TEV site cleaves at the 1st methionine; In the CDK1 experiments this is the sample incubated with CDK1:CyclinB1 without ATP; also called CHMP7 wildtype; WT; source: E. coli BL21(DE3), purified (Ni-NTA, TEV cleavage, Superdex 200, monomeric fractions); not shown: 2xHis6, N-terminal, cleaved; NusA, N-terminal, cleaved
T3 sequence (looked up): T1 sequence (looked up) with E3S, E441S

[4] = molecular target: T4, CDK1-phosphorylated CHMP7 (human, UniProt Q8WUX9 1-453, phosphoserine at Ser3 and Ser441 (CDK1 sites named by the paper)); assay: co-IP; CHMP7 pre-incubated with CDK1:CyclinB1 with or without 3 mM ATP, then 5 μM CHMP7 with 10 μM HA-LEM2^CT dialysed overnight at 4°C from HiSalt (250 mM KCl) into LoSalt buffer (30 mM HEPES pH 8, 25 mM KCl, 1 mM DTT); CHMP7 captured on anti-CHMP7 Dynabeads
T4 construct: CHMP7, human, full-length open reading frame, phosphorylated in vitro by CDK1:CyclinB1; also called recombinant CHMP7 incubated with CDK1 and CCNB1 in the presence of ATP; source: E. coli BL21(DE3), purified; phosphorylated in vitro with bought CDK1:CyclinB1 complex (Millipore) and 3 mM ATP; not shown: 2xHis6, N-terminal, cleaved; NusA, N-terminal, cleaved
T4 sequence (looked up): T1 sequence (looked up) with E3S, E441S

Measured: binding result

B1: recombinant HA-LEM2^CT (LEM2 C-terminal domain 395-503) (domain or fragment, human, UniProt Q8NC56 395-503, looked up)
chain: ILLKYRWRKLEEEEQAMYEMVKKIIDVVQDHYVDWEQDMERYPYVGILHVRDSLIPPQSRRRMKRVWDRAVEFLASNESRIQTESHRVAGEDMLVWRWTKPSSFSDSER
notes: LEM2 (LEMD2), human, codon-optimised synthetic gene, C-terminal domain residues 395-503; also called LEM2's C-terminus; source: E. coli BL21(DE3), purified (Ni-NTA, on-bead TEV cleavage); not shown: 2xHis6, N-terminal, cleaved; NusA, N-terminal, cleaved; HA, N-terminal, kept
binds: all assays above

Source: paper PMC8324300, “CDK1 controls CHMP7-dependent nuclear envelope reformation” (eLife, 2021)
